The results in this text go back to patent US20240058465A1 (SUTRO BIOPHARMA, published 2024).

In one experiment the target is T1, human ROR1 (hROR1) (human, UniProt Q01973 30-937).
T1 construct: On HCT116-hROR1 transfectants, Mino cells or Ntera-2 cells, as the assay of each row says; also called receptor tyrosine kinase like orphan receptor 1
The experiment is described as follows: flow cytometry, HCT116-hROR1 cells.

The target of experiment [1] is T2, human ROR1 Frizzled domain (hROR1-Fz) (human, UniProt Q01973 165-305).
T2 construct: Acro Biosystems, made in HEK293
The experiment is described as follows: SPR Biacore, IgG on anti-Fc, ROR1-Fz analyte. The procedure:
Anti-Fc polyclonal antibodies were immobilized onto a CMS chip (GE Life Sciences) using amine coupling chemistry (from Amine Coupling Kit, GE Life Sciences). The immobilization steps were carried out at a flow rate of 25 μL/min in 1×HBS-EP+buffer (GE Life Sciences; 10× Stock diluted before use). The sensor surfaces were activated for 7 min with a mixture of NHS (0.05 M) and EDC (0.2 M). The Anti-Fc antibodies were injected over all 4 flow cells at a concentration of 25 ug/ml in 10 mM sodium acetate, pH 4.5, for 7 min. Ethanolamine (1 M, pH 8.5) was injected for 7 min to block any remaining activated groups.
Off-rate and kinetic binding experiments were performed at 25° C. using 1×HBS-EP+buffer. Test and control antibodies were injected over the anti-Fc surface at concentrations of 5-10 μg/mL for 12 seconds at a flow rate of 10 μL/min on flow cells 2, 3 and 4, followed by a buffer wash for 30 seconds at the same flow rate. […] After capturing ligand (antibody) on the anti-Fc surface, the analyte (hROR1, Fz or Kr domains, Acro Biosystems, Delaware) was bound for 180 seconds, followed by a 600 second dissociation phase at a flow rate of 50 μL/min. Between each ligand capture and analyte binding cycle, regeneration was carried out using 2 injections of 10 mM Glycine pH 2.0 for 30 seconds at 30 μL/min, followed by a 30 second buffer wash step.
(In general: SPR reads the build-up and loss of mass on a sensor chip optically.)

B1: SRP2194-A06 (antibody, IgG1, V domains shown)
VH: EVQLVESGGGLVQPGGSLRLSCAASGFNITDYYIHWVRQAPGKGLEWVGYISPLAGNTYHADSVKGRFPISADTSKNTAYLQMNSLRAEDTAVYYCARDSRRYVRPFDYWGQGTLVTVSS
VL: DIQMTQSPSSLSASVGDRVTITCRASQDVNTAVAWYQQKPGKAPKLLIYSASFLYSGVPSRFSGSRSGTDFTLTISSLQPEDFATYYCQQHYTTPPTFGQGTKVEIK
notes: His/FLAG-tagged IgG1, cell-free
With B1, in the experiment with human ROR1 (hROR1), the “Bmax (MFI)” value came out at 9050 MFI and binding was put at a Kd of 0.49 nM. In experiment [1], this molecule had a Kd of 3.75 nM, a koff of 0.00193 s⁻¹ and a kon of 516000 M⁻¹ s⁻¹.

B2: SRP2194-A02 (antibody, IgG1, V domains shown)
VH: EVQLVESGGGLVQPGGSLRLSCAASGFNITGYYIHWVRQAPGKGLEWVGYISPLAGNTYHADSVKGRFTISADTSKNTAYLQMNSLRAEDTAVYYCARDSRRYVRPFDYWGQGTLVTVSS
VL: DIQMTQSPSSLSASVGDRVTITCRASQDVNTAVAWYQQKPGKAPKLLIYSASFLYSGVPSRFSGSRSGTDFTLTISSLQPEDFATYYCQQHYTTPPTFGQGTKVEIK
notes: as for B1
B2: in the experiment with human ROR1 (hROR1), the “Bmax (MFI)” value amounted to 9220 MFI and the dissociation constant Kd was 0.14 nM. In experiment [1], this molecule returned a Kd of 1.39 nM, a koff of 0.000429 s⁻¹ and a kon of 308000 M⁻¹ s⁻¹.

B3: SRP2196-B08 (antibody, V domains shown)
VH: EVQLVESGGGLVQPGGSLRLSCAASGFNITGYYIHWVRQAPGKGLEWVGQISPNSGYTYLADSVKGRFTISADTSKNTAYLQMNSLRAEDTAVYYCARDSRRYVRGWDYWGQGTLVTVSS
VL: QAVVTQESALTTSPGETVTLTCRSSTGAVTTSNYANWVQEKPDHLFTGLIGGTNKRAPGVPARFSGSLIGDKAALTITGAQTEDEAIYFCALWYSNLWVFGGGTKLTVL
notes: His/FLAG-tagged IgG1
Regarding B3, in the experiment with human ROR1 (hROR1), the “Bmax (MFI)” value came to 14400 MFI and binding was characterised by a dissociation constant (Kd) of 0.2 nM. In experiment [1], this molecule returned a Kd of 3.13 nM, a koff of 0.000488 s⁻¹ and a kon of 156000 M⁻¹ s⁻¹.

B4: SRP2194-A07 (antibody, IgG1, V domains shown)
VH: EVQLVESGGGLVQPGGSLRLSCAASGFNFTDYYIHWVRQAPGKGLEWVGYISPLAGNTYHADSVKGRFTISADTSKNTAYLQMNSLRAEDTAVYYCARDSRRYVRPFDYWGQGTLVTVSS
VL: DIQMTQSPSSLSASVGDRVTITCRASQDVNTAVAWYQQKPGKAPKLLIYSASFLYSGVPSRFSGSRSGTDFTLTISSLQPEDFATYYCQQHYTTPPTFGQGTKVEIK
notes: as for B1
Consider B4, for which, in the experiment with human ROR1 (hROR1), the “Bmax (MFI)” value amounted to 8770 MFI and the Kd was determined as 0.41 nM. For the same molecule, in experiment [1], the Kd was 1.61 nM, the koff is 0.000275 s⁻¹ and the kon was 171000 M⁻¹ s⁻¹.

B5: SRP2194-B01 (antibody, IgG1, V domains shown)
VH: EVQLVESGGGLVQPGGSLRLSCAASGFNIASYYIHWVRQAPGKGLEWVGYISPLAGNTYHADSVKGRFTISADTSKNTAYLQMNSLRAEDTAVYYCARDSRRYVRPFDYWGQGTLVTVSS
VL: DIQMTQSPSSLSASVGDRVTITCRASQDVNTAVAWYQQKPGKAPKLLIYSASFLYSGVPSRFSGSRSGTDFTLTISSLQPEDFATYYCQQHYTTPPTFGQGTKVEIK
notes: His/FLAG-tagged IgG1, cell-free; also called Antibody 140
Regarding B5, in the experiment with human ROR1 (hROR1), the “Bmax (MFI)” value turned out to be 8860 MFI and the Kd turned out to be 0.14 nM. In experiment [1], this molecule yielded a Kd of 3.12 nM, a koff of 0.000857 s⁻¹ and a kon of 274000 M⁻¹ s⁻¹.

B6: SRP2194-B04 (antibody, IgG1, V domains shown)
VH: EVQLVESGGGLVQPGGSLRLSCAASGFNITGYHIHWVRQAPGKGLEWVGYISPLAGNTYHADSVKGRFTISADTSKNTAYLQMNSLRAEDTAVYYCTRDSRRYVRPLDYWGQGTLVTVSS
VL: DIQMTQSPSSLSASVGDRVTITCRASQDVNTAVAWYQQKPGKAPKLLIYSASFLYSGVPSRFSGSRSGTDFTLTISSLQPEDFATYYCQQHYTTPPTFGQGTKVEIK
notes: His/FLAG-tagged IgG1, cell-free; also called Antibody 129
As to B6, in the experiment with human ROR1 (hROR1), the “Bmax (MFI)” value came out at 9300 MFI and binding was characterised by a dissociation constant (Kd) of 0.2 nM. In experiment [1], this molecule returned a Kd of 1.44 nM, a koff of 0.000392 s⁻¹ and a kon of 271000 M⁻¹ s⁻¹.

B7: SRP2194-B03 (antibody, IgG1, V domains shown)
VH: EVQLVESGGGLVQPGGSLRLSCAASGFNITSYYIHWVRQAPGKGLEWVGYISPLAGNTYHADSVKGRFTISADTSKNTAYLQMNSLRAEDTAVYYCARDSRRYVRPFDYWGQGTLVTVSS
VL: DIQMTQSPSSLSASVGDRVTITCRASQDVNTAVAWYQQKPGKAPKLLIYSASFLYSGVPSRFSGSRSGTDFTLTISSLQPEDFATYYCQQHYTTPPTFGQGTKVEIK
notes: as for B1
With B7, in the experiment with human ROR1 (hROR1), the “Bmax (MFI)” value came out at 9480 MFI and the Kd came out at 0.18 nM. For the same molecule, in experiment [1], binding was put at a Kd of 1.42 nM, the koff was 0.000295 s⁻¹ and the kon came to 207000 M⁻¹ s⁻¹.

B8: SRP2194-B02 (antibody, IgG1, V domains shown)
VH: EVQLVESGGGLVQPGGSLRLSCAASGFNISGYYIHWVRQTPGKGLEWVGYISPLAGNTYHADSVKGRFTISADTSKNTAYLQMNSLRAEDTAVYYCARDSRRYVRPLDYWGQGTLVTVSS
VL: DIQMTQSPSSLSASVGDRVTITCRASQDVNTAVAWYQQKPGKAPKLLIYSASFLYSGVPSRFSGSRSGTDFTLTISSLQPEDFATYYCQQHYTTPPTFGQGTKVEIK
notes: as for B1
On to B8, for which, in the experiment with human ROR1 (hROR1), the “Bmax (MFI)” value turned out to be 9330 MFI and binding was put at a Kd of 0.15 nM. In experiment [1], this molecule came in with a Kd of 2.77 nM, a koff of 0.00071 s⁻¹ and a kon of 256000 M⁻¹ s⁻¹.

For orientation: Kd means the concentration at which binding is half-saturated. A high value points to lower affinity. For orientation: koff means the first-order rate constant of dissociation. Higher therefore signals a short-lived complex. A word on the kon: it is a measure of how fast the partners come together.
